Molecular target: T1, untagged full-length WT MCTS1 (human, UniProt Q9ULC4 1-181)
T1 construct: MCTS1, human, ORF in pETDuet under its own T7 promotor, untagged; also called MCT-1; source: E. coli BL21 (DE3), coexpressed with HIS-tagged DENR variants; in lysate for the pull-down, co-purified (NiNTA, SEC) for crystallization
T1 sequence (looked up): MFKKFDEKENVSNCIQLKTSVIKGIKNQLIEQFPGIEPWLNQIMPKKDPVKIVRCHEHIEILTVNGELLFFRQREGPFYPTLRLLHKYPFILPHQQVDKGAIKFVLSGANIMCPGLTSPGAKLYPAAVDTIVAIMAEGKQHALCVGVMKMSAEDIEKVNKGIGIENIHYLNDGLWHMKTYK
Test: pull-down; N-terminally HIS-tagged DENR variants or fragments coexpressed with untagged MCTS1 in E. coli; DENR purified over a nickel column, copurifying MCTS1 detected in the eluate
Settings: partners not purified

B1: NHis6-tagged DENR aas 24–51 (domain or fragment, human, UniProt O43583 24-51, looked up)
chain: DADYPLRVLYCGVCSLPTEYCEYMPDVA
notes: DENR, human, residues 24-51; also called DENR(aa24–51); DENR peptide; source: E. coli BL21 (DE3), coexpressed with untagged MCTS1; in lysate for the pull-down, purified (NiNTA, SEC) for crystallization; not shown: His6, N-terminal, kept
Q: Does B1 bind?
A: Result: binds

Source: publication PMC6013234, “DENR–MCTS1 heterodimerization and tRNA recruitment are required for translation reinitiation” (PLoS Biology, 2018)
